The target of experiment [1] is T1, human MUC1-C on stably transfected cells (human, UniProt P15941 961-1255, limits assumed).
T1 construct: domain: MUC1-C; the cell line of each value is named under assay; also called HCC827-human-MUC1-C cells; CHOK1-human-MUC1-C cells
Nature of the experiment: FACS, CHOK1-human-MUC1-C. Background: In flow cytometry, cells or beads pass a laser one at a time.

Experiment [2] has as its target T1, human MUC1-C on stably transfected cells. In words: FACS, CHOK1-human-MUC1-C. The source holds these as a separate data set.
For experiment [3] the target is unchanged. In words: FACS, HCC827-human-MUC1-C, Test 2.
Experiment [4] shares this target. Nature of the experiment: FACS, HCC827-human-MUC1-C.
Experiment [5] shares this target. In words: FACS, HCC827-human-MUC1-C, Test 1.
For experiment [6], the target named is T2, human MUC1 as expressed on tumour cell lines (T47D, HCC827, HPAC) (human, UniProt P15941 24-1255).
T2 construct: whole, on cells; the cell line is named under assay; also called T47D cells; HCC827 cells
In words: FACS, HPAC.

The target of experiment [7] is T2, human MUC1 as expressed on tumour cell …. In words: FACS, T47D.
For experiment [8] the target is unchanged. Nature of the experiment: FACS, HCC827.
The target of experiment [9] is T1, human MUC1-C on stably transfected cells. Nature of the experiment: FACS, HCC827-human-MUC1-C, Test 2. The source holds these as a separate data set.

Where a chain is given by its changes, count along the chain named.

One may read the EC50 as the concentration at which the effect is half-maximal. A high value points to lower potency in that assay.

B1: F4-1-H1L2 (antibody, human IgG1, kappa, V domains shown)
VH: EVQLVQSGAEVKKPGASVKVSCKASGYTFTDNYINWVRQAPGQRLEYMGWIYPGSGNNKFNEKFKGRVTITVDTSASTAYMELSSLRSEDTAVYYCARDYPFPSYHYGMDYWGQGTTVTVSS
VL: DIQLTQSPSSLSASVGDRVTITCSASSSVSYIHWFQQKPGKAPKLWIYSTSNLASGVPSRFSGSGSGTDFTLTVSSLQPEDFATYYCQQRSSYPPTFGGGTKVEIKR
notes: humanized, human IgG1
In [1], B1 displayed an Emax of 102000.

B2: F4-1-H2L3 (antibody, human IgG1, kappa, V domains shown)
VH: B1 VH with M48I, I70L, S77R
VL: B1 VL with K41T, A42S
notes: humanized, human IgG1
In [1], B2 registered an Emax of 122000.

B3: F4-18-H2L3 (antibody, human IgG1, kappa, V domains shown)
VH: EVQLVQSGAEVKKPGASVKVSCKASGYTFTSYGINWVRQRPGQGLEWIGYIYLGSDYTEYNEKFKGRVTLTSDTSASTAYMELSSLRSEDTAVYYCARSAGSLFAYWGQGTLVTVSS
VL: DIQLTQSPSSLSASVGDRVTITCRASQDIGITLNWLQQKPGKAIKRLIYATSSLDSGVPSRFSGSRSGSDYTLTISSLQPEDFATYYCLQYASSPYTFGGGTKVEIKR
notes: humanized, human IgG1
In [2], B3 showed an Emax of 80400.

B4: F4-18-H3L4 (antibody, human IgG1, kappa, V domains shown)
VH: B3 VH with K12V, V20M, A24T
VL: B3 VL with K39E, K42G, S60K
notes: humanized, human IgG1
B4: the Emax in experiment [2] worked out at 73400.

B5: M6-H2L2 (antibody, human IgG1, kappa, V domains shown)
VH: EVQLVQSGAEVKKPGASVKVSCKASGYRFIPYWIEWVRQAPGQGLEWMGEILPGTGRTNYNEKFKGRVTFTADTSTNTVYMELSSLRSEDTAVYYCARYGDDTSGGYYAVDYWGQGTTVTVSS
VL: EIVLTQSPATLSLSPGERATLSCRASESVNILGTNLIHWYQQKPGQAPKLLIYHASNLETGIPARFSGSGSRTDFTLTISSLEPEDFAVYYCLQSRKIPWTFGGGTKVEIKR
notes: humanized, human IgG1
Molecule B5 registered an Emax in [3] of 92700.

B6: M6-H7L2 (antibody, human IgG1, kappa, V domains shown)
VH: B5 VH with Q39E, A40R, Q43H, R87T, S88N, D101E
VL: B5 VL
notes: humanized, human IgG1
B6: in experiment [3], the Emax was 78400.

B7: M6-H5L3 (antibody, human IgG1, kappa, V domains shown)
VH: B5 VH with Q39E, A40R, Q43H, R87T, D101E
VL: B5 VL with E1D, L4M, F87V
notes: humanized, human IgG1
Molecule B7 gave an Emax in [3] of 73000.

B8: M6-H7L3 (antibody, human IgG1, kappa, V domains shown)
VH: B5 VH with Q39E, A40R, Q43H, R87T, S88N, D101E
VL: B5 VL with E1D, L4M, F87V
notes: humanized, human IgG1
In [3], B8 registered an Emax of 48900.

B9: ChiM4 (antibody, human IgG1, kappa, V domains shown)
VH: QVQLQQSGAELARPGASVKLSCKASGYSFTTYGVPWVKQRTGQGLEWIGDIYPRSGNTYYNEKFKGKATLTADKSSDTVFMELRSLSSEDSAVYFCAREDYDNYPYALDYWGQGTSVTVSS
VL: EIVLTQSPAIIAASPGEKVTITCSASSSVFNMNWYQQKPGSSPKIWIYDISKLASGVPGRFSGSGSGTSFSLTINSMEAEDVGTYYCQQRSFYPPTFGGGTKVEIKR
notes: murine variable regions on human IgG1 constant regions; also called chimeric antibody of M4
B9 showed an Emax in experiment [4] of 13200.

B10: M4-H1L2 (antibody, human IgG1, kappa)
heavy: not shown
light: DIVMTQSPSSLSASVGDRVTITCSASSSVFNMNWYQQKPGKSPKLWIYDISKLASGVPSRFSGSGSGTDFTLTISSLQPEDFATYYCQQRSFYPPTFGGGTKVEIKRTVAAPSVFIFPPSDEQLKSGTASVVCLLNNFYPREAKVQWKVDNALQSGNSQESVTEQDSKDSTYSLSSTLTLSKADYEKHKVYACEVTHQGLSSPVTKSFNRGEC
notes: humanized, human IgG1
B10 gave an Emax in [5] of 74400.

B11: M4-H1L1 (antibody, human IgG1, kappa)
heavy: not shown
light: B10 light with V3Q
notes: humanized, human IgG1
Consider B11, for which the Emax in experiment [6] is 22400; in experiment [7], 5250; in experiment [8], 3630; in experiment [9], 42300. The same molecule displayed an EC50 in experiment [9] of 5 nM.

B12: M4H1L1-9-A (antibody, human IgG1, kappa)
heavy: not shown
light: B10 light with V3Q
modifications: compound 9-A coupled to reduced cysteines of the antibody (chains and sites not stated), average n=6.6
notes: also called MUC1 monoclonal antibody ADC
For B12, the Emax in [6] is 29200; in [8], 3690.

B13: ChiF4-18 (antibody, human IgG1, kappa, V domains shown)
VH: EVQLQQSGAELVRPGSSVKMSCKTSGYTFTSYGINWVKQRPGQGLEWIGYIYLGSDYTEYNEKFKGKATLTSDTTSSTAYMQLSSLTSEDSAIYFCARSAGSLFAYWGQGTLVTVSA
VL: DIQLTQSPSSLSASLGERVSLTCRASQDIGITLNWLQQEPDGTIKRLIYATSSLDSGVPKRFSGSRSGSDYSLTISSLESEDFVDYYCLQYASSPYTFGGGTKLEIKR
notes: murine variable regions on human IgG1 constant regions; also called chimeric antibody of F4-18
In the case of B13, the Emax in experiment [4] came to 20900.

B14: ChiF4-1 (antibody, human IgG1, kappa, V domains shown)
VH: QIQLQQSGPELVKPGASVKISCKASGYTFTDNYINWVKQRPGQGLEYIGWIYPGSGNNKFNEKFKGKATLTVDTSSRTAFMQLSSLTFEDSAVYFCARDYPFPSYHYGMDYWGQGTSVTVSS
VL: QILLTQSPAIMSASPGERVTITCSASSSVSYIHWFQQKPGTSPKLWIYSTSNLASGVPPRFSGSGSGTSFSLTVSRMEAEDAATYYCQQRSSYPPTFGGGTKLEIKR
notes: murine variable regions on human IgG1 constant regions; also called chimeric antibody of F4-1
The molecule B14 showed an Emax in [4] of 21500.

The record behind these values is patent US20260232830A1 (JIANGSU HENGRUI PHARMACEUTICALS, published 2026).
